# Test results taken from patent publication US20200399347A1, “IL-22BP COMPOSITIONS AND METHOD FOR THE TREATMENT OF DISEASE THEREWITH” (The Regents of the University of Michigan, priority 2017, published 2020).
# T1: human IL-22 binding protein (IL-22BP) (Homo sapiens, UniProt Q969J5 22-263)
# T1 construct: also called hIL-22BP; human IL-22BP
# T1 sequence: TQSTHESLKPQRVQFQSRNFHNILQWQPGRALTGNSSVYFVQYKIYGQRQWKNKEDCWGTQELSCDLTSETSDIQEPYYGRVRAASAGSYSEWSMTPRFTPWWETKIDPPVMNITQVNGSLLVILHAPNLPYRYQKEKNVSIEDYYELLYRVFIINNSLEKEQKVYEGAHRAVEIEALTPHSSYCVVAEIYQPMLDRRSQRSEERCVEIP
# T2: IL-22BP-Alb fusion protein (human IL-22BP fused to murine albumin) (Homo sapiens; mouse, UniProt Q969J5 22-263)
# T2 construct: also called fusion protein of hIL-22BP and albumin; not shown: serum albumin, mouse, cloned from mouse liver
# T2 sequence: T1 sequence
# T3: mouse IL-22 (Mus musculus, UniProt Q9JJY9)
# T3 sequence (Q9JJY9 34-179): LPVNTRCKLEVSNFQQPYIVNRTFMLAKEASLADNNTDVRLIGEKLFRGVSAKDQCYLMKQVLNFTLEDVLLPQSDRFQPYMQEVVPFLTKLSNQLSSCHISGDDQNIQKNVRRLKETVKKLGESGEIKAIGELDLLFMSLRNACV
# T4: IL-22 (Homo sapiens, UniProt Q9GZX6)
# T4 sequence (Q9GZX6 34-179): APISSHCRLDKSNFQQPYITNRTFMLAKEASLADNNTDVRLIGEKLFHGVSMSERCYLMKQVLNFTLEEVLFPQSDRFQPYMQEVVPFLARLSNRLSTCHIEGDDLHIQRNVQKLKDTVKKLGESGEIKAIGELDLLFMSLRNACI
# B1: human IL-22 (ligand, UniProt Q9GZX6 34-179, looked up)
# chain: T4 sequence (Q9GZX6 34-179)
# notes: Used at a fixed 100 ng/ml
# B2: mouse IL-22 (ligand, UniProt Q9JJY9 34-179, looked up)
# chain: T3 sequence (Q9JJY9 34-179)
# notes: Used at a fixed 100 ng/ml; also called murine IL-22
# B3: IL-22BP-Alb: fusion protein which binds hIL-22BP to murine albumin (protein)
# chain: T1 sequence
# modifications: left off: large carriers
# B4: Human IL-22BP: human interleukin-22 binding protein, soluble receptor capable of cytokine neutralization (SEQ ID NO: 1) (protein, listed as Homo sapiens)
# chain: MMPKHCFLGFLISFFLTGVAGTQSTHESLKPQRVQFQSRNFHNILQWQPGRALTGNSSVYFVQYKIYGQRQWKNKEDCWGTQELSCDLTSETSDIQEPYYGRVRAASAGSYSEWSMTPRFTPWWETKIDPPVMNITQVNGSLLVILHAPNLPYRYQKEKNVSIEDYYELLYRVFIINNSLEKEQKVYEGAHRAVEIEALTPHSSYCVVAEIYQPMLDRRSQRSEERCVEIP
# B5: IL-22: α-helical cytokine that binds the heterodimeric cell surface receptor IL-22R (protein, UniProt Q9GZX6 34-179, looked up)
# Interleukin-22: T4 sequence (Q9GZX6 34-179)
# B6: murine IL-22BP: mouse interleukin-22 binding protein (SEQ ID NO: 2) (protein, listed as Mus musculus)
# chain: MMPKHCLLGLLIILLSSATALEIQPARVSLTPQKVRFQSRNFHNILHWQAGSSLPSNNSIYFVQYKMYGQSQWEDKVDCWGTTALFCDLTNETLDPYELYYGRVMTACAGRHSAWTRTPRFTPWWETKLDPPVVTITRVNASLRVLLRPPELPNRNQSGKNASMETYYGLVYRVFTINNSLEKEQKAYEGTQRAVEIEGLIPHSSYCVVAEMYQPMFDRRSPRSKERCVQIP
# Tests used:
# PD2560 = assay: Cisplatin mediated cell death (cleaved caspase 3 immunoblot) with or without IL-22 pre-treatment; format: cell-based, murine
# Protocol: Chemoresistance is a well-established phenomenon in PDAC and is often responsible for disease progression and death. […] Cells were then treated with varying doses of cisplatin and cell death assessed by immunoblot for cleaved caspase 3. Degree of DNA damage was determined by measurement of phosphorylated histone 2AX (pH2AX), a marker of DNA damage triggered by cisplatin (ref. 39; incorporated by reference in its entirety). […] The differences in cell death appeared to be mediated by changes in DNA damage (FIG. 6 Panel B).
# [1] = biological target: T1, human IL-22 binding protein (IL-22BP); assay: binding inferred from neutralisation of IL-22-induced pSTAT3 on PDAC cells (immunoblot)
# [2] = biological target: T2, IL-22BP-Alb fusion protein (human …); assay: binding inferred from neutralisation of IL-22-induced pSTAT3 signaling in vitro
# Protocol: (§1) IL-22BP is an important regulator of IL-22 signaling at the tissue level and functions by sequestering cytokine and blocking its ability to bind to its cognate receptor. Its high affinity for IL-22 and neutralizing ability make it an attractive target for pharmacologic disruption of IL-22 signaling. To determine its efficacy in vitro, a fixed concentration of human and mouse IL-22 (100 ng/ml) was incubated for 30 minutes with increasing concentrations of human or mouse IL-22BP (0-1000 ng/ml). The mixture was then placed onto human and murine PDAC lines and IL-22 signaling measured by pSTAT3 activation at 15 minutes. […] A fusion protein which binds hIL-22BP to murine albumin was constructed.
# mouse IL-22 = biological target: T3, mouse IL-22; assay: Neutralization of mouse IL-22 by IL-22BP, read out as pSTAT3 activation in PDAC lines; format: cell-based; conditions: IL-22 100 ng/ml incubated 30 minutes with IL-22BP 0-1000 ng/ml, pSTAT3 at 15 minutes in PDAC lines
# Protocol: as §1
# IL-22 [3] = biological target: T4, IL-22; assay: In vitro testing of fusion protein for sequestration and abrogation of STAT3 signaling; format: cell-based; conditions: IL-22 species not stated, FIG. 6 Panel E
# Protocol: as §1
# IL-22 [4] = biological target: T4, IL-22; assay: Neutralization of human IL-22 by IL-22BP, read out as pSTAT3 activation in PDAC lines; format: cell-based; conditions: IL-22 100 ng/ml incubated 30 minutes with IL-22BP 0-1000 ng/ml, pSTAT3 at 15 minutes in PDAC lines
# Protocol: as §1
# PKCY cells = assay: Matrigel invasion assay, PDAC line; format: cell-based, murine; conditions: IL-22 incubation compared to control conditions (untreated and IL-6)
# Protocol: (§2) To establish the role of IL-22 in pancreatic tumorigenesis in vitro, the murine PDAC line PKCY and PanIN lines 134, 5505 and 5552 were incubated in IL-22. Matrigel invasion assays were performed and number of infiltrating cells quantified. IL-22 incubation induced a 10-fold increase in invasion of PKCY cells compared to control conditions (untreated and IL-6) (FIG. 5 Panel A). […] Wild-type and IL-22 knockout mice were subcutaneously inoculated with equal quantities of PKCY cells. At 21 days, mice were sacrificed and tumor development, size and weight were determined.
# [5] = system: human and mouse PDAC cell lines; assay: Immunoblotting for STAT3 and NF-κB activation after IL-22 incubation; format: cell-based; conditions: 100 ng/ml of IL-22 for 15 and 30 minutes
# Description: One of the principle signaling pathways activated by ligand binding at IL-22R1 is via JAK mediated phosphorylation of STAT3 (pSTAT3) (Refs. 7, 36, 37; incorporated by reference in its entirety). Because of constitutive association of STAT3 with the intracellular domain of the receptor, signaling is activated rapidly and efficiently upon IL-22 binding (ref 38; incorporated by reference in its entirety). A second, less described IL-22 signaling pathway is via NF-κB, which leads to transcription of genes associated with proliferation and prevention of apoptosis (ref. 6, 7; incorporated by reference in their entireties). To evaluate the ability of IL-22 to activate STAT3 and NF-κB in human and mouse PDAC, cell lines were incubated with 100 ng/ml of IL-22 for 15 and 30 minutes. […] To determine the presence of STAT3 activation in-vivo, IHC for pSTAT3 was performed on pancreata harvested from PKCY mice at 8 weeks (low-grade PanIN), 12 weeks (high-grade PanIN) and after ultrasound confirmation of PDAC. pSTAT3 staining was increased as lesions advanced from low grade PanIN to invasive cancer (FIG. 4B-D).
# PanIN cell lines = assay: Matrigel invasion assay, PanIN lines; format: cell-based, murine; conditions: IL-22 incubation; two PanIN cell lines with little to no invasive capability at baseline
# Protocol: as §2
molecule,measurement,setting,value
"N.N.[Cl][Pt][Cl] [cisplatin, reference compound]",cell death by cisplatin (cleaved caspase 3),"PD2560; murine PDAC line PD2560, low and high doses",showed sensitivity
B1,binding result,[1],binds
same,binding result,[2],binds
B2,binding result,[1],binds
same,binding result,[2],binds
B3,neutralization of murine IL-22 (pSTAT3 activation),mouse IL-22,capable of binding and neutralizing
same,neutralization of IL-22 (sequestration and abrogation of STAT3 signaling),IL-22 [3],capable of neutralizing IL-22
same,neutralization of human IL-22 (pSTAT3 activation),IL-22 [4],capable of binding and neutralizing
B4,neutralization of murine IL-22 (pSTAT3 activation),mouse IL-22,completely neutralizing
same,neutralization of murine IL-22 (pSTAT3 activation),mouse IL-22; listed as hIL-22BP,capable of binding and neutralizing
same,neutralization of human IL-22 (pSTAT3 activation),IL-22 [4],completely neutralizing
same,neutralization of human IL-22 (pSTAT3 activation),IL-22 [4]; listed as hIL-22BP,capable of binding and neutralizing
B5,increase in invasion of PKCY cells,PKCY cells,10 fold
same,effect of IL-22 pre-treatment on sensitivity to cisplatin,PD2560; PD2560 cultured in IL-22 for 4 days before cisplatin,diminished
same,pSTAT3 activation,[5],robust pSTAT3 activation
same,pNF-κB,[5]; KPC and PKCY lines,modest increase
same,invasion of PanIN cell lines,PanIN cell lines,induced invasion
B6,neutralization of murine IL-22 (pSTAT3 activation),mouse IL-22,little sequestration
same,neutralization of human IL-22 (pSTAT3 activation),IL-22 [4],little sequestration
